The values that follow are results of earlier work, collected in PMC5973875.

Like-named read-outs stand apart in the source and are kept apart here.

Data set [1] concerns the target Protein S (Homo sapiens) (UniProt P07225).
Data set [2] shares this target. The source holds these as a separate data set.

UniProt P07225, sequence (P07225 42-676): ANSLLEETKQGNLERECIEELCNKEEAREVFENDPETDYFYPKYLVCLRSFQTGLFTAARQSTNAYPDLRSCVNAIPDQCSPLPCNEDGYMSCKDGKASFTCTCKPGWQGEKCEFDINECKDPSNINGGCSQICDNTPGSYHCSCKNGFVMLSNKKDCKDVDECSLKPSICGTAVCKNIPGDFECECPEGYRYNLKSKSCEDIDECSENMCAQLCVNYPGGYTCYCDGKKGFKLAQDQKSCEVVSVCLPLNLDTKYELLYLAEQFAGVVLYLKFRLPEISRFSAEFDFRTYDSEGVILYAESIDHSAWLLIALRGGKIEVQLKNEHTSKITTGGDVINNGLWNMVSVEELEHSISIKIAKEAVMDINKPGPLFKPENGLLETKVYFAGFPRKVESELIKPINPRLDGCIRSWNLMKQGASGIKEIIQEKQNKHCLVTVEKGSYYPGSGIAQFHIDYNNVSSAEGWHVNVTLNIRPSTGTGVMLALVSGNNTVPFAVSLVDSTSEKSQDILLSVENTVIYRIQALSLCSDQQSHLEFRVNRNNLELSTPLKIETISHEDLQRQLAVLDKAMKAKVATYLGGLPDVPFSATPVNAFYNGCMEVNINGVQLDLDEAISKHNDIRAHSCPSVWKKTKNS

As to C4BP (from UniProt P04003), in the data set with Protein S (Homo sapiens) [1], the Kd is 0.1 nM.

For the substance “Factor Va heavy chain (from UniProt P12259)”, the equilibrium dissociation constant (Kd) with Protein S (Homo sapiens) [2] was 33 nM.

As usually defined, the Kd is the concentration at which binding is half-saturated.
